How the values were obtained:
[1] = biological target: PD-1 (antigen of the ELISA and of the in vitro affinity measurement) (UniProt Q15116); test: ELISA; design: Bmax: unit not given here
hPD1-mFc (human) = test: kinetic binding table: huPDL1-hFc captured as ligand (capture level 53.4 RU), hPD1-mFc as sample; method not given
Chain of hPD1-mFc (human) (Q15116 25-170): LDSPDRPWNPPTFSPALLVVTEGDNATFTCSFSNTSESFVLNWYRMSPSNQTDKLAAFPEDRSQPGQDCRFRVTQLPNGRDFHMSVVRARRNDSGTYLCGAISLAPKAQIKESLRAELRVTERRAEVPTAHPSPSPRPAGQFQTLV

Chain of PD-1 (antigen of the ELISA and of the in vitro affinity measurement) (Q15116 25-167 limits assumed): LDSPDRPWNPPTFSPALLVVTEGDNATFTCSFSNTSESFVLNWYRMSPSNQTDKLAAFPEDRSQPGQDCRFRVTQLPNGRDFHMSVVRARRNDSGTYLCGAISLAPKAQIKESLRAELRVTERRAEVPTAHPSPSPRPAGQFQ

Substance | Bmax [1] | Kd [1] [nM] | Kd (hPD1-mFc (human)) [nM] | koff (hPD1-mFc (human)) [s⁻¹] | kon (hPD1-mFc (human)) [M⁻¹ s⁻¹]
XR034 (Pembro IgG) (antibody) | 1.37 | 0.32 | – | – | –
huPDL1-hFc (from UniProt Q9NZQ7) (Fc fusion) | – | – | 74.1 | 0.025 | 338000

Source: patent US20230365641A1
